Test results taken from US20080227128.

Experiments:
[1] = tested on: T1, KPLGSDDSLADY peptide
T1 sequence: KPLGSDDSLADY

[2] = tested on: T2, MEK substrate (MEKSBS)
T2 sequence: XDPDHDHTGFLTEYVATRW

**Q.** What does the source list for purified MEK?
**A.** phosphorylation in an in vitro kinase assay [1]: are both phosphorylated in the presence of purified MEK in an in vitro kinase assay; phosphorylation in an in vitro kinase assay [2]: are both phosphorylated in the presence of purified MEK in an in vitro kinase assay
